Measured values published in US10766960 (dated 2020).
Substitutions are numbered along the chain they refer to.

T1: FcgRIIa R (human, UniProt P12318)
T1 chain: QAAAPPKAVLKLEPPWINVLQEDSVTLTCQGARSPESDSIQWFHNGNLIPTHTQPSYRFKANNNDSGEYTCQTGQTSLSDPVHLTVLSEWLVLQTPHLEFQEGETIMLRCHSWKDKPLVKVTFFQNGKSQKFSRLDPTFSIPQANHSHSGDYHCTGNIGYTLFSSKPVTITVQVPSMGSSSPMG

T2: FcgRIIb (human, UniProt P31994)
T2 chain: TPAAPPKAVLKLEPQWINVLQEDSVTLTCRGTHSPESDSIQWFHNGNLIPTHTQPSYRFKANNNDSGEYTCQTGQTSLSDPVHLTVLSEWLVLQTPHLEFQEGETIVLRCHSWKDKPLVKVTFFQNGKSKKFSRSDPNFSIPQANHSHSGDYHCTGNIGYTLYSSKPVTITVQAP

T3: FcgRIIa H (human, UniProt P12318)
T3 chain: T1 chain with R134H

T4: FcgRIa (human, UniProt P12314)
T4 chain: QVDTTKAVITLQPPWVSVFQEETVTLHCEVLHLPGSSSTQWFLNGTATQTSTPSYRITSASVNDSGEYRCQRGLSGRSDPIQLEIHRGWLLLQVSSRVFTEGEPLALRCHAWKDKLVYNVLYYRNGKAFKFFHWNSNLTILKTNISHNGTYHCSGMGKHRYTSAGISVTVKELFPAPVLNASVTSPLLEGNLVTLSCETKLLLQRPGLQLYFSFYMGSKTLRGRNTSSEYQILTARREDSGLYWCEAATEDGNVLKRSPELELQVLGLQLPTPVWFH

B1: H240-FA020/H240-FB082/L73-k0 (antibody)
chain 1: QDQLVQSGAEVKKPGASVKVSCKASGFNIKDTYIQWVRQAPGQGLEWMGRIDPLRKQTKYREKFEGRVTITADTSTNTAYMELSSLRSEDTAVYYCVRSGREFDYWGQGTLVTVSSASTKGPSVFPLAPSSKSTSGGTAALGCLVKDYFPEPVTVSWNSGALTSGVHTFPAVLQSSGLYSLSSVVTVPSSSLGTKTYTCNVNHKPSNTKVDKKVEPKSCDKTHTCPPCPAPEYYWGPSVFLFPPKPKDTLMISRTPEVTCVVVDVSDEEPEVKFNWYVDGVEVHNAKTKPREEQYNATYRVVSVLTVLHQDWLNGKEYKCKVSNKALPAPIEKTISKAKGQPREPQVYTLPPSRKEKTKNQVSLTCLVKGFYPSDIAVEWESNGQPENNYKTTPPVLDSDGSFFLYSKLTVDKSRWQQGNVFSCSVMHEALHNRYTQKSLSLSP
chain 2: QDQLVQSGAEVKKPGASVKVSCKASGFNIKDTYIQWVRQAPGQGLEWMGRIDPLRKQTKYREKFEGRVTITADTSTNTAYMELSSLRSEDTAVYYCVRSGREFDYWGQGTLVTVSSASTKGPSVFPLAPSSKSTSGETAALGCLVEDYFPEPVTVSWNSGALTSGVHTFPAVLQSSGLYSLSSVVTVPSSSLGTQTYICNVNHKPSNTKVDKKVEPKSCDKTHTCPPCPAPELLGGPSVFLFPPKPKDTLMISRTPEVTCVVVDVSHEEPEVQFNWYVDGVEVHNAETKPREEQYNSTYRVVSVLTVLHQDWLNGKEYKCKVSNDALPMPIEETISKAKGQPREPQVYTLPPSREEMTKNQVSLTCLVKGFYPSDIAVEWESEGQPENNYKTTPPVLDSDGSFFLYSKLTVDKSRWQQGNVFSCSVMHEALHNHYTQESLSLSP
chain 3: DIQMTQSPSSLSASVGDRVTITCRASQDIHKYIAWYQQKPGQAPRLLIQYTSTLQPGVPSRFSGSGSGTDYTFTISSLQPEDIATYYCLQYEQLRTFGGGTKVEIKRTVAAPSVFIFPPSDEQLKSGTASVVCLLNNFYPREAKVQWKVDNALQSGNSQESVTEQDSKDSTYSLSSTLTLSKADYEKHKVYACEVTHQGLSSPVTKSFNRGEC
B2: H240-FA012/H240-FB056/L73-k0 (antibody)
chain 1: B1 chain 1 with T198I, E271K, K357M
chain 2: B1 chain 2 with G136E, E137G, N202D, E383N
chain 3: B1 chain 3
B3: H240-FA020/H240-FB084/L73-k0 (antibody)
chain 1: B1 chain 1
chain 2: B1 chain 2 with G136E, E137S, S191N, L192F, I198T, N202D, K213T
chain 3: B1 chain 3
B4: H240-FA030/H240-FB083/L73-k0 (antibody)
chain 1: B1 chain 1 with E271K, K357M
chain 2: B1 chain 2 with G136E, E137S, S191N, L192F, I198T, N202D, K213T, E383N
chain 3: B1 chain 3
B5: H240-FA009/H240-FB020/L73-k0 (antibody)
chain 1: B1 chain 1 with T198I, K357M
chain 2: B1 chain 2 with E137G, E287K, E383N
chain 3: B1 chain 3
B6: H240-FA009/H240-FB017/L73-k0 (antibody)
chain 1: B1 chain 1 with T198I, K357M
chain 2: B1 chain 2 with G136E, E137G, E146K, N202D, E287K, E383N
chain 3: B1 chain 3
B7: H240-FA009/H240-FB015/L73-k0 (antibody)
chain 1: B1 chain 1 with T198I, K357M
chain 2: B1 chain 2 with G136E, E137G, E146K, E287K, E383N
chain 3: B1 chain 3
B8: H240-FA020/H240-FB059/L73-k0 (antibody)
chain 1: B1 chain 1
chain 2: B1 chain 2 with E383N
chain 3: B1 chain 3
B9: H240-FA030/H240-FB064/L73-k0 (antibody)
chain 1: B1 chain 1 with E271K, K357M
chain 2: B1 chain 2 with G136E, E137S, E146K, S191N, L192F, I198T, N202D, K213T, E287K, E383N
chain 3: B1 chain 3
B10: H240-FA009/H240-FB021/L73-k0 (antibody)
chain 1: B1 chain 1 with T198I, K357M
chain 2: B1 chain 2 with E137G, E146K, E383N
chain 3: B1 chain 3
B11: H240-Kn210/H240-Hl076/L73-k0 (antibody)
chain 1: B1 chain 1 with K195Q, T198I, Y233I, Y234Q, S238M, Y348C, K355D, K357L, T365W, R434H
chain 2: QDQLVQSGAEVKKPGASVKVSCKASGFNIKDTYIQWVRQAPGQGLEWMGRIDPLRKQTKYREKFEGRVTITADTSTNTAYMELSSLRSEDTAVYYCVRSGREFDYWGQGTLVTVSSASTKGPSVFPLAPSSKSTSGGTAALGCLVKDYFPEPVTVSWNSGALTSGVHTFPAVLQSSGLYSLSSVVTVPSSSLGTQTYICNVNHKPSNTKVDKKVEPKSCDKTHTCPPCPAPELLGGPSVFLFPPKPKDTLMISRTPEVTCVVVDVSHEEPEVKFNWYVDGVEVHNAKTKPREEQYNSTYRVVSVLTVLHQDWLNGKEYKCKVSNDALPMPIEETISKAKGQPREPQVYTLPPSRCELTKNQVSLSCAVKGFYPSDIAVEWESNGQPENNYKTTPPVLDSDGSFFLVSKLTVDKSRWQQGNVFSCSVMHEALHNHYTQKSLSLSP
chain 3: B1 chain 3
B12: H240-Kn212/H240-Hl076/L73-k0 (antibody)
chain 1: B1 chain 1 with K195Q, T198I, Y233T, Y234Q, S238M, Y348C, K355D, K357L, T365W, R434H
chain 2: B11 chain 2
chain 3: B1 chain 3
B13: H240-Kn184/H240-Hl068/L73-k0 (antibody)
chain 1: QDQLVQSGAEVKKPGASVKVSCKASGFNIKDTYIQWVRQAPGQGLEWMGRIDPLRKQTKYREKFEGRVTITADTSTNTAYMELSSLRSEDTAVYYCVRSGREFDYWGQGTLVTVSSASTKGPSVFPLAPSSKSTSGGTAALGCLVKDYFPEPVTVSWNSGALTSGVHTFPAVLQSSGLYSLSSVVTVPSSSLGTQTYICNVNHKPSNTKVDKKVEPKSCDKTHTCPPCPAPEEYWGPMVFLFPPKPKDTLMISRTPEVTCVVVDVSDEDPEVKFNWYVDGVEVHNAKTKPREEQYNATYRVVSVLTVLHQDWLNGKEYKCKVSNKDLPAPIEKTISKAKGQPREPQVCTLPPSRDELTKNQVSLWCLVKGFYPSDIAVEWESNGQPENNYKTTPPVLDSDGSFFLYSKLTVDKSRWQQGNVFSCSVMHEALHNHYTQKSLSLSP
chain 2: B11 chain 2 with M329K
chain 3: B1 chain 3
B14: H240-Kn209/H240-Hl076/L73-k0 (antibody)
chain 1: B13 chain 1 with E233Q, Y234Q, D269E, D326A
chain 2: B11 chain 2
chain 3: B1 chain 3

Target: T1, FcgRIIa R
Test: SPR

Binder	Kd [nM]
B1	270
B2	280
B3	220
B4	280
B5	250
B6	230
B7	330
B8	250
B9	290
B10	280

Target: T5, FcgRIIIa V (human, UniProt P08637)
Test: SPR

T5 sequence (P08637 17-208 F176V): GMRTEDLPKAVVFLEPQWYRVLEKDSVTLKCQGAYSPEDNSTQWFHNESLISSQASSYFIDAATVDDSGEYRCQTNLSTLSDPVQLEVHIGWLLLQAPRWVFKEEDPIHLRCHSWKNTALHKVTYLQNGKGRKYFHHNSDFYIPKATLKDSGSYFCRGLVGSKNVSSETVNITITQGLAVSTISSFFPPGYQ

Binder	Kd [nM]
B1	1.1
B2	1.3
B3	1
B4	1.2
B5	1.1
B6	0.84
B7	1.3
B8	1.3
B9	1.5
B10	0.78

Target: T2, FcgRIIb
Test: SPR

Binder	Kd [nM]
B11	4200
B12	5200
B13	150
B14	7500

Target: T3, FcgRIIa H
Test: SPR

Binder	Kd [nM]
B11	150
B12	230
B13	70
B14	250

Target: T3, FcgRIIa H
Test: SPR
Remark: another data set of the same source

Binder	Kd [nM]
B1	69
B2	86
B3	57
B4	82
B5	64
B6	61
B7	84
B8	77
B9	96
B10	70

Target: T5, FcgRIIIa V
Test: SPR
Remark: another data set of the same source

Binder	Kd [nM]
B11	0.49
B12	0.58
B13	0.34
B14	0.62

Target: T2, FcgRIIb
Test: SPR
Remark: another data set of the same source

Binder	Kd [nM]
B1	1200
B2	1400
B3	1400
B4	1500
B5	1400
B6	1400
B7	1800
B8	1300
B9	1800
B10	2200

Target: T4, FcgRIa
Test: SPR

Binder	Kd [nM]
B1	0.079
B2	0.1
B3	0.068
B4	0.081
B5	0.12
B6	0.11
B7	0.093
B8	0.038
B9	0.057
B10	0.051

Target: T6, FcgRIIIa F (human, UniProt P08637)
Test: SPR

T6 sequence (P08637 17-208): as the sequence (P08637 17-208 F176V) above, with V160F counted along it

Binder	Kd [nM]
B1	3.4
B2	5
B3	3.5
B4	3.9
B5	3.9
B6	3
B7	4.2
B8	3.5
B9	5.3
B10	3.7

Target: T6, FcgRIIIa F
Test: SPR
Remark: another data set of the same source

Binder	Kd [nM]
B11	1.8
B12	2.1
B13	2.2
B14	2.4

Target: T4, FcgRIa
Test: SPR
Remark: another data set of the same source

Binder	Kd [nM]
B11	0.079
B12	0.094
B13	0.16
B14	0.083

Target: T1, FcgRIIa R
Test: SPR
Remark: another data set of the same source

Binder	Kd [nM]
B11	590
B12	640
B13	27
B14	1200
